Test results from paper PMC3670040, “Structure of Lipid Kinase p110β/p85β Elucidates an Unusual SH2-Domain-Mediated Inhibitory Mechanism” (Molecular Cell, 2011).

Tested on: p110β/p85β-nic
Assay: ATPase activity (ADP formation) in the absence of lipid substrate, Transcreener
Format: biochemical, mouse
Conditions: 35 nM complex; Figure 1D
Protocol: Figure 1 Inhibition of p110β by p85-Type Regulatory Subunits and Activation of the Complexes by RTK Phosphopeptide (A) Domain organization of p110β and the regulatory subunits p85α, p85β, and p55γ. The color scheme for the domains is used for all figures, unless otherwise stated. […] The inhibition is released upon addition of the 10 μM PDGFR pY2. […] The y axis is expressed as a change in fluorescence polarization (ΔmP), which is obtained by subtracting the observed polarization for the construct at a given enzyme concentration from the maximum fluorescence polarization for that construct. The plateau in these assays arises due to the competitive nature of the ADP detection system, based on displacement of ADP-Alexa 633 tracer from the ADP^2-antibody by ADP generated during the PI3K assay (see Supplemental Experimental Procedures). All measurements were done in triplicates, and the error bars indicate the standard error of the mean (SEM). […]
The lipid kinase activity was determined using the Transcreener ADP2 FP Assay (BellBrook Labs, Madison, WI) according to manufacturer‟s specifications. This non-radioactive assay measures activity by quantitating the amount of ADP formed. The ADP formed by PI3K competes with fluorescent ADP tracer for binding to an anti-ADP antibody, thereby decreasing fluorescence polarization. […]

B1: p110β-ΔCter/nic: truncation mutant lacking 17 residues from the p110β C terminus; human ΔCter (1-1053) used in cells (protein, UniProt P42338 1-1053, looked up, fragment)
chain: MCFSFIMPPAMADILDIWAVDSQIASDGSIPVDFLLPTGIYIQLEVPREATISYIKQMLWKQVHNYPMFNLLMDIDSYMFACVNQTAVYEELEDETRRLCDVRPFLPVLKLVTRSCDPGEKLDSKIGVLIGKGLHEFDSLKDPEVNEFRRKMRKFSEEKILSLVGLSWMDWLKQTYPPEHEPSIPENLEDKLYGGKLIVAVHFENCQDVFSFQVSPNMNPIKVNELAIQKRLTIHGKEDEVSPYDYVLQVSGRVEYVFGDHPLIQFQYIRNCVMNRALPHFILVECCKIKKMYEQEMIAIEAAINRNSSNLPLPLPPKKTRIISHVWENNNPFQIVLVKGNKLNTEETVKVHVRAGLFHGTELLCKTIVSSEVSGKNDHIWNEPLEFDINICDLPRMARLCFAVYAVLDKVKTKKSTKTINPSKYQTIRKAGKVHYPVAWVNTMVFDFKGQLRTGDIILHSWSSFPDELEEMLNPMGTVQTNPYTENATALHVKFPENKKQPYYYPPFDKIIEKAAEIASSDSANVSSRGGKKFLPVLKEILDRDPLSQLCENEMDLIWTLRQDCREIFPQSLPKLLLSIKWNKLEDVAQLQALLQIWPKLPPREALELLDFNYPDQYVREYAVGCLRQMSDEELSQYLLQLVQVLKYEPFLDCALSRFLLERALGNRRIGQFLFWHLRSEVHIPAVSVQFGVILEAYCRGSVGHMKVLSKQVEALNKLKTLNSLIKLNAVKLNRAKGKEAMHTCLKQSAYREALSDLQSPLNPCVILSELYVEKCKYMDSKMKPLWLVYNNKVFGEDSVGVIFKNGDDLRQDMLTLQMLRLMDLLWKEAGLDLRMLPYGCLATGDRSGLIEVVSTSETIADIQLNSSNVAAAAAFNKDALLNWLKEYNSGDDLDRAIEEFTLSCAGYCVASYVLGIGDRHSDNIMVKKTGQLFHIDFGHILGNFKSKFGIKRERVPFILTYDFIHVIQQGKTGNTEKFGRFRQCCEDAYLILRRHGNLFITLFALMLTAGLPELTSVKDIQYLKDSLALGKSEEEALKQFKQKFDEALRESW
For B1, the “ATPase activity in the absence of lipid substrate” value was “increased”.
